Results reported in patent publication US20260092121A1 (TALEM THERAPEUTICS, published 2026).

target: T1, biotinylated His-Avi-tagged human CD3δ/ε heterodimer (human, UniProt P07766 23-126; P04234 22-105, biotinylated); assay: ELISA
T1 construct: bought, expressed from HEK293; also called CD30/8; Biotin-CD3
T1 sequence (P07766 23-126, stated change not applied, chain 1 of 2): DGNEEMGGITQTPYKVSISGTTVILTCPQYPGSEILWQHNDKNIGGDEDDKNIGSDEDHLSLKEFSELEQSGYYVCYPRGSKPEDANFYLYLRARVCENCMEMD
T1 sequence (P04234 22-105, stated change not applied, chain 2 of 2): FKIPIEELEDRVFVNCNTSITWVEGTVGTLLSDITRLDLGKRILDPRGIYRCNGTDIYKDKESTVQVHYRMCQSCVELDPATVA

| EC50 [µg/mL] | Binder |
| --- | --- |
| 12.1 | anti-CD3 Fab clone 7-B02 (Fab, V domains shown, Fab, HEK293) VH: QVQLVQSGGGLVQPGGSLRLSCAASGFTFSRYSMSWVRQAPGKGLEWVSSISGGGGSTYYADSVKGRFTISRDNSDGSVYLKMNSLAAGDTAAYYCVRGGWYRTPFEFWGRGTLVTVSS VL: SYVLTQPPSVSASPGQTASITCSGHKLGDKYTSWYQQKPGQSPVLVIYQDNKRPSGIPERFSGSNSGNTATLTISGTQAMDEADYYCQAWDSSTNYVFGTGTKLTVL |
| 3.6 | anti-CD3 Fab clone 3-A06 (Fab, V domains shown, Fab, HEK293; not the anti-TrkB clone 3A06) VH: QVTLRESGGGLVKPGGSLRLSCSASGFTFRGFYMAWIRQAPGKGLEWVAYISSSGSAVYHADSVKGRFTVSRDNAKNLMYLEMNSLRADDTAVYYCARDGGTGGFDYWGQGTLVTVSS VL: NFMLTQPHSVSESPGKTVAISCSRSSGSVASNYVQWYQQRPGNVPTTIIYQDNQRPSGVPDRFSGSIDKSSNSASLTISGLKTEDEADYYCQSYDGRRLIFGGGTKLTVL |
| 11.4 | anti-CD3 Fab clone 3-A05 (Fab, V domains shown, Fab, HEK293; not the anti-TrkB clone 3A05) VH: QVQLLQSAAEVKKPGASVKVPCKASGYTFTGHYMHWVRQAPGQGLEWMGIINPRGGSTSYAQKFQGRVTMTRDTSTSTVYMELSSLRSEDTAVYYCARESIAAAGPYFDYWGQGTLVTVSS VL: QSALTQPHSVSESPGKTVTISCTRTSGRIGSNYVQWYQQRPGSAPTVVIYEDNQRPSGVPDRFSGSIDSSTNSASLTISRLKTEDEADYYCQSYDSGVVVVFGGGTKLTV |
| 16.9 | anti-CD3 Fab clone 3-B06 (Fab, V domains shown, Fab, HEK293; not the anti-TrkB clone 3B06) VH: QVQLQQSGAEVKKPGASLKVSCKASGYTFTRYGFSWVRQAPGQGLEWMGWISAYNGNTNYAQKFQGRVTMTTDTSTSTAYMEMRSLRSDDTAVYYCARDRGYCSGGSCPGIDAFDIWGQGTMVTVSS VL: SYVLTQPPSVSVAPGQTAKITCGGDNIENKYVHWYQQKPGQAPVVVVYDDSDRPSGIPDRFSGSNSGNTATLTITRVEAGDEADYYCQVWDSSSDRVVFGGGTKLTVL |
| 4.3 | anti-CD3 Fab clone 5-A05 (Fab, V domains shown, Fab, HEK293) VH: QVQLVQSGAEGKKPGSSVKVSCKASGGTFSSYAISWVRQAPGQGLEWMGGIIPIFGTANYAQKFQGRVTITADESTSTAYMELRSLRSDDTAVYYCARDAVVVADSGSMDVWGQGTTVTVSS VL: not shown |
| 6.8 | anti-CD3 Fab clone 1-H01 (Fab, V domains shown, Fab, HEK293) VH: QVQLVQSGAEVKKPGSSVKVSCKASGGTFSSYAISWVRQAPGQGLEWMGGIIPIFGTANYAQKFQGRVTITADESTSTAYMELSSLRSEDTAVYYCARDAVVVADSGSMDVWGQGTTVTVSS VL: not shown |
| 38.2 | anti-CD3 Fab clone 8-B12 (Fab, V domains shown, Fab, HEK293) VH: HVQLVQSGGGSAQHGGSLRLSCAASGFTFNNSYMNWVRQAPGKRLEWISTISRGGNSVYYADSVKGRFTVSRDNTKNLTFLQMDSLRDEDTAVYYCAKGGDYLYWGQGTLVTVSS VL: NFMLTQPHSVSESPGKTVTLSCTRSSGSIASKYVQWYQQRPGSAPTIVIFDDDRRPSGVPDRFSGSIDRSSNSASLTIFGMKTEDEADYYCQSYDSSNWVFGGGTKLTVL |
| 19.5 | anti-CD3 Fab clone 4-A01 (Fab, V domains shown, Fab, HEK293) VH: QVQLVQSEGGLVQPGGSLRLSCAASGFSFGSSAMSWVRQAPGRGLEWVSGISHSGSTTYYADSVKGRFTISRDNSKNTLYLQMNSLRVEDTAVYYCAKIGAYGYYFHYWGQGTLVTVSS VL: NFMLTQPHSVSESPGKTVTISCTGSGGNIGNNYVQWYQQRPDSPPSTVIYDDSQRPSGVPDRFSGSIDRSSNSASLTISGLRTEDEADYYCQSSDSGRVVFGGGTKLTV |
| 16.8 | anti-CD3 Fab clone 4-G03 (Fab, V domains shown, Fab, HEK293) VH: QVQLLQSAGGLVQPGGSLRLSCAASGYSFGSSAMSWVRQAPGRGLEWVSGISHSGSTTYYADSVKGRFTISRDNSKNTLYLQMNSLRAEDTAVYYCAKIGAYGYYFHYWGQGTLVTVSS VL: NFMLTQPHSVSESPGKTVTISCTGNGGNIASNYVQWYQHRPDSAPIAVIYDDSQRPSGIPDRFSGSIDRSSNSASLTISGLRPEDEADYYCQSSDNANVVFGGGTKLTVL |
| 7.9 | anti-CD3 Fab clone 7-E01 (Fab, V domains shown, Fab, HEK293) VH: QVQLQQSGGGLVQPGGSLRLSCAASGFSFGSSAMSWVRQAPGRGLEWVSGISHSGSTTYYADSVKGRFTISRDNSKNTLYLQMNSLRVEDTAVYYCAKIGAYGYYFHYWGQGTLVTVSS VL: NFMLTQPHSVSESPGRTVTISCTRSSGSIASNYVQWYQQRPGSAPTTVIYEDNQRLSGVPDRFSGSIDRSSNSASLTISGLKTEDEADYYCQSSDDSNHLVFGGGTKLTVL |
| 7.9 | anti-CD3 Fab clone 1-G11 (Fab, V domains shown, Fab, HEK293) VH: QVQLVQSGAEVKKPGASVKVSCKASGYTFTSYGISWVRQAPGQGLEWMGWISAYNGNTNYAQKLQGRVTMTTDTPTSTAYMEVRSLRSDDTAVYYCAREVNYGLDVWGQGTLVTVSS VL: QPVLTQPPSASGTPGQRVTISCSGSSSNIGSKYVYWYQQLPGTAPKLLIYRNNQRPSGVPDRFSGSKSGTSASLVISGLRSEDEADYHCAAWDDSLSGRVFGGGTKLTVL |
| 5.2 | anti-CD3 Fab clone 3-A03 (Fab, V domains shown, Fab, HEK293) VH: EVQLVESGGGVVQPGRSLRLSCAASGFTFSSYAMHWVRQAPGKGLEWVSAISGSGGSTYYADSVKGRFTISRDNSKNTLYLQMNSLRAEDTAVYYCARDAHDYWGQGTLVTVSS VL: QSVLTQPPSVSAAPGQKATISCSGGSSNLGNNYVSWYQQLPGTAPKLLIYDNNKRPSGIPDRFSGSKSGTSAALAITGLQTGDEADYYCGTWDSSLSAGVFGGGTKLTVL |
| 174 | anti-CD3 Fab clone 1-D03 (Fab, V domains shown, Fab, HEK293) VH: EVQLVQSGGGLVKPGRSLRLSCTASGFTFGDYAMSWFRQAPGKGLEWVGFIRSKAYGGTTEYAASVKGRFTISRDDSKSIAYLQMNSLKTEDTAVYYCTRVSDIYGMDVWGQGTTVTVSS VL: QSVLTQPPSVSAAPGQKVTISCSGSSSNIGNNYVSWYQQLPGTAPKLLIYDNNKRPSGIPDRFSGSKSGTSATLGITGLQTGDEADYYCATWDDSLKAGVFGGGTKLTVL |
| 10.9 | anti-CD3 Fab clone 3-B04 (Fab, V domains shown, Fab, HEK293; not the anti-TrkB clone 3B04) VH: QVQLVQSGGGLVQPGRSLRLSCAASGFTFDDFAMHWVRQAPGKGLEWVSGITWNSAATIYADSVKGRFTISRDNAKNSLYLQMNSLRPEDTAVYYCARDRGGPKDPFDIWGQGTMVTVSS VL: QSVLTQPPSVSAAPGKKVTISCSGGSSNIGKNYVSWYQQLPGTAPKLLIYDNNKRPSGIPDRFSGSKSGTSATLGITGLQTGDEADYYCGTWDSSLSAVVFGGGTKLTVL |
| 19.2 | anti-CD3 Fab clone 1-C12 (Fab, V domains shown, Fab, HEK293) VH: QVQLQQSGPGLVKPSQTLSLTCAISGDSVSSNSAAWNWIRQSPSRGLEWLGRTYYRSKWYNDYAVSVKSRITINPDTSKNQFSLQLNSVTPEDTAVYYCARGITGTGYGMDVWGQGTLVTVSS VL: QSVLTQPPSASGTPGQRVTISCSGSSSNIGRNHVYWYQQLPGTAPKLLIYNNDQRPSGVPDRFSGSKSGTSGSLTISGLQAEDEADYYCAAWDDSLSSGVFGGGTKVTVL |
| 5.9 | anti-CD3 Fab clone 3-C04 (Fab, V domains shown, Fab, HEK293) VH: EVQLVESGGGLVQPGGSLRLSCAASGFTFNNFYMNWVRQAPGKGLEWISTISRGGNSVYYADSVKGRFTVSRDNAKNSLFLQMDSLRDEDTAVYYCVRGGDFLYWGQGTLVTVSS VL: NFMLTQPHSVSESPGKTVTISCTRSTGSIAGNYVQWYQQRPGSSPTTVILEDKQRPSGVPDRFSGSIDTSSNSATLTISGLKTEDEADYYCQSYDSGNVIFGGGTKLTVL |
| 73.8 | anti-CD3 Fab clone 4-G04 (Fab, V domains shown, Fab, HEK293) VH: QVNLRESGGGVVQPGGSLRLSCAASGFTFRRYGMNWIRQAPGKGLEWVSSISSSSSYIYYADSVKGRFTISRDNAKNSLYLQMNSLRAEDTAMYYCVRDGRFINGLDVWGQGTLVTVSS VL: NFMLTQPHSVSESPGRTVTISCTRSSGSIASNYVQWYQQRPGSSPTTVIYDDKKRPSGVPDRFSGSIDSSTNSASLTISGLKTEDEADYYCQSYDSSNHWVFGGGTKVTVL |
| 23.9 | anti-CD3 Fab clone 5-C03 (Fab, V domains shown, Fab, HEK293) VH: QVQLQQSGPGLVKPSQTLSLTCAISGDSVSSNSAAWNWIRQSPSRGLEWLGRTYYRSKWYNDYAVSVKSRITINPDTSKNQFSLQLNSVTPEDTAVYYCATWGMDVWGQGTTVTVSS VL: not shown |
| 23.9 | anti-CD3 Fab clone 2-C02 (Fab, V domains shown, Fab, HEK293) VH: QVQLQQSGPGLVKPSQTLSLTCAISGDSVSSNSAAWNWIRQSPSRGLEWLGRTYYRSKWYNDYAVSVKSRITINPDTSKNQFSLHLNSVTPEDTAVYYCATWGMDVWGQGTTVTVSS VL: not shown |
| 47.7 | anti-CD3 Fab clone 6-C04 (Fab, V domains shown, Fab, HEK293) VH: QVQLQQSGPGLVKPSQTLSLTCAISGDSVSSNSAAWNWIRQSPSRGLEWLGRTYYRSKWYNDYAVSVKSRITINPDTSKNQFSLHLNSVTPEDTAVYYCATWGMDVWGQGTMVTVSS VL: not shown |
| 6.3 | anti-CD3 Fab clone 7-G01 (Fab, V domains shown, Fab, HEK293) VH: QVQLVQSGPEVKKPGASVNISCKTSGYTFRNYYVHWVRQAPGQGFEYMGRVNPNSGNARYAQKFQGRVAMTSDTSTSTAYMELSSLRSEDTAVYYCAREPPATVAYYYGMDVWGQGTTVTVSS VL: NFMLTQPHSVSESPGKTVTISCTGSSGSIASNYVHWYQQRPGSAPTTVIYEDNQRPSGVPDRFSGSIDSSSNSASLTISGLKTEDEADYYCRSYDSSNRNWVFGGGTKLTVL |
| 34.9 | anti-CD3 Fab clone 7-A11 (Fab, V domains shown, Fab, HEK293) VH: EVQLVESGGGVVQPGRSLRLSCAASGFTFSSYGIHWVRQAPGKGLEWVSAISGSGGSTYYADSVKGRFTISRDNAKNSLYLQMNSLRDEDTAVYYCARERLIGMDVWGQGTTVTVSS VL: NFMLTQPHSVAESPGKTVTISCTRSSGSIASNYVQWYQQRPGSAPTTVIYEDNQRPSGVPDRFSGSIDSSSNSASLTISGLKTEDEADYYCQSYDSGNPRVFGGGTKLTVL |
| 52.3 | anti-CD3 Fab clone 7-C11 (Fab, V domains shown, Fab, HEK293) VH: EVQLVESGGGLVQPGGSLRLSCAASGFTSNTYAMSWVRQAPGKGLEWVSTISGSGSSTNYADSVKGRFTISRDSSKNTLYLQMNSLRAEDTAVYYCARIERYSYGIDYWGQGTLVTVSS VL: NFMLTQPHSVSESPGKTVTISCTRNTGGIAANYVQWYHQRPGSAPTTVIYEDKQRPSGVPGRFSGSIDGSSNSASLTISGLQAEDEGDYYCHSSDNNNQVFGGGTKLTVL |
| 7.2 | anti-CD3 Fab clone 3-B05 (Fab, V domains shown, Fab, HEK293) VH: QVQLLQSAGGVVQPGRSLRLSCAASGFTFSTYAVHWVRQAPGKGLEWVAAISYDGAGKYYGDSVRGRFTISRDDSKNTVYLQMNSLRAEDTAVYYCAGEHYTLTDEEFDFWGQGTLVTVSS VL: QSVLTQPPSVSAAPGQKVTISCSGSASNIGNNYVSWYQQLPGTAPKLLIYDNNQRPSGIPDRFSGSKSGTSATLGITGLQTGDEADYYCGTWDTSLRGVVFGGGTKVTVL |
